Test results reported in paper PMC8244335 (Current Research in Structural Biology, 2019).
“And” between values parts separate entries of the source, which are not always exact repeats. Equal values may be shown once.

Target: the molecule itself
Test: AUC

B1: catalytically inactive S679A mutant of Escherichia coli (strain K12) LonA protease, full length (enzyme, E. coli (strain K12), UniProt P0A9M0 1-784, looked up)
chain: MNPERSERIEIPVLPLRDVVVYPHMVIPLFVGREKSIRCLEAAMDHDKKIMLVAQKEASTDEPGVNDLFTVGTVASILQMLKLPDGTVKVLVEGLQRARISALSDNGEHFSAKAEYLESPTIDEREQEVLVRTAISQFEGYIKLNKKIPPEVLTSLNSIDDPARLADTIAAHMPLKLADKQSVLEMSDVNERLEYLMAMMESEIDLLQVEKRIRNRVKKQMEKSQREYYLNEQMKAIQKELGEMDDAPDENEALKRKIDAAKMPKEAKEKAEAELQKLKMMSPMSAEATVVRGYIDWMVQVPWNARSKVKKDLRQAQEILDTDHYGLERVKDRILEYLAVQSRVNKIKGPILCLVGPPGVGKTSLGQSIAKATGRKYVRMALGGVRDEAEIRGHRRTYIGSMPGKLIQKMAKVGVKNPLFLLDEIDKMSSDMRGDPASALLEVLDPEQNVAFSDHYLEVDYDLSDVMFVATSNSMNIPAPLLDRMEVIRLSGYTEDEKLNIAKRHLLPKQIERNALKKGELTVDDSAIIGIIRYYTREAGVRGLEREISKLCRKAVKQLLLDKSLKHIEINGDNLHDYLGVQRFDYGRADNENRVGQVTGLAWTEVGGDLLTIETACVPGKGKLTYTGSLGEVMQESIQAALTVVRARAEKLGINPDFYEKRDIHVHVPEGATPKDGPAAGIAMCTALVSCLTGNPVRADVAMTGEITLRGQVLPIGGLKEKLLAAHRGGIKTVLIPFENKRDLEEIPDNVIADLDIHPVKRIEEVLTLALQNEPSGMQVVTAK
- stoichiometry N: 12 and 6
